B1: RNA-binding protein 7 (Homo sapiens), Q9Y580 (parent)
chain: MGAAAAEADRTLFVGNLETKVTEELLFELFHQAGPVIKVKIPKDKDGKPKQFAFVNFKHEVSVPYAMNLLNGIKLYGRPIKIQFRSGSSHAPQDVSLSYPQHHVGNSSPTSTSPSRYERTMDNMTSSAQIIQRSFSSPENFQRQAVMNSALRQMSYGGKFGSSPLDQSGFSPSVQSHSHSFNQSSSSQWRQGTPSSQRKVRMNSYPYLADRHYSREQRYTDHGSDHHYRGKRDDFFYEDRNHDDWSHDYDNRRDSSRDGKWRSSRH
partner: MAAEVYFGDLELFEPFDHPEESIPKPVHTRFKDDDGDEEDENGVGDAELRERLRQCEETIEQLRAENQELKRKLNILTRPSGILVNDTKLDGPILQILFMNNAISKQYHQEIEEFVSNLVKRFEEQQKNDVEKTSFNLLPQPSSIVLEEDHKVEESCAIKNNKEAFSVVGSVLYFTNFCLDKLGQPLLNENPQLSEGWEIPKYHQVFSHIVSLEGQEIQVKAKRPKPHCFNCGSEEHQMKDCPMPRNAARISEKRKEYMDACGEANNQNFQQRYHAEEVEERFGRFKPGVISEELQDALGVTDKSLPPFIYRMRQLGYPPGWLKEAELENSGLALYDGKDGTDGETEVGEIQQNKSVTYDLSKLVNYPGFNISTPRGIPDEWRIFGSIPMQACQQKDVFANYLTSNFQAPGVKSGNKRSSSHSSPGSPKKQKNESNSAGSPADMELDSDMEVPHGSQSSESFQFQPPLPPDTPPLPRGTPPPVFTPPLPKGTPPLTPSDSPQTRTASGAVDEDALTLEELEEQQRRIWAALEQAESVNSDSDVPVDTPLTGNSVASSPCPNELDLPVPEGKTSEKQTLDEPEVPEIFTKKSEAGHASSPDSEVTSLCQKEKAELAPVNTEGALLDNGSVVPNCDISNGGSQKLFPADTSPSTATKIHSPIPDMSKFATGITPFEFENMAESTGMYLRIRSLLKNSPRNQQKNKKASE
B2: Zinc finger CCHC domain-containing protein 8 (Homo sapiens), Q6NZY4 (parent)
chain: B1 partner
partner: B1 chain

Variants of: B1
Conditions: with zchc8_human ZCCHC8, Q6NZY4

Row | effect of a mutation on the interaction | Variant
1 | decreasing interaction strength | MGAAAAEADRTLFVGNLETKVTEELLFELFHQAGPVIKVKIPKDKDGKPKQFAFVNFKHEVSVPAAMNELNGIKLYGRPIKIQFRSGSSHAPQDVSLSYPQHHVGNSSPTSTSPSRYERTMDNMTSSAQIIQRSFSSPENFQRQAVMNSALRQMSYGGKFGSSPLDQSGFSPSVQSHSHSFNQSSSSQWRQGTPSSQRKVRMNSYPYLADRHYSREQRYTDHGSDHHYRGKRDDFFYEDRNHDDWSHDYDNRRDSSRDGKWRSSRH [Y65A;L69E]
2 | decreasing interaction strength | MGAAAAEADRTLFVGNLETKVTEEELFEEFHQAGPVIKVKIPKDKDGKPKQFAFVNFKHEVSVPYAMNLLNGIKLYGRPIKIQFRSGSSHAPQDVSLSYPQHHVGNSSPTSTSPSRYERTMDNMTSSAQIIQRSFSSPENFQRQAVMNSALRQMSYGGKFGSSPLDQSGFSPSVQSHSHSFNQSSSSQWRQGTPSSQRKVRMNSYPYLADRHYSREQRYTDHGSDHHYRGKRDDFFYEDRNHDDWSHDYDNRRDSSRDGKWRSSRH [L25E;L29E]

Variants of: B2
Conditions: with rbm7_human RBM7, Q9Y580

Row | effect of a mutation on the interaction | Variant
3 | disrupting interaction strength | F309A;M313E
4 | disrupting interaction strength | L295E;L299E

— IntAct's records for PubMed 27905398
